Measured values from the domain aggregation screens of Martell et al. (2025).

Experiment: soluble fraction after stress (log2 fold change); higher = more stays soluble; pooled small domains, quantitative proteomics
Settings: stress: pH 4
How it was run: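 Values are on a log2 scale, where higher means more of the domain stayed soluble after pH 4 stress. They are fold changes in the soluble amount of each domain from pooled custom libraries, measured by high-throughput quantitative proteomics. The fold change is taken to reflect aggregation propensity.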
For “HMQYRQRRGLERMELILDAATRVVAEVGYERTTTNAIATRAGISPGSLYQYFSSKEDIASALWERYAE”, the “soluble fraction (log2)” value was -0.251. With “HMRAGEAVTGQVIGVKEDEIILSIAGSKSEGIITRSEFTNEPNVDLTTKVSVGDELEVKVLKVNDGEGMAS” the “soluble fraction (log2)” value was -0.244. With “HMRAKPLILLDGREISAEELFSLDKNSIKSIEVLKDETALAQYGEKAKNGVVLVVTKSAAAS” the “soluble fraction (log2)” value was 0.0982. In the case of “HMRALPAGQADLLKWIDGVTPRSVEELELLSGLEPGRLSELLMELELAGIVRAVAGDSYIKISKS”, the “soluble fraction (log2)” value is reported as -0.534. For “HMRAPETEITYTEFKTALRAGQIETATVGIEQISGKLTDGDLYRTVRVDDPDLLKDLEANHVNAAGRV”, the “soluble fraction (log2)” value was -0.0386. In the case of “HMRASQGRNELILSLLRGHELSILELLEGLEKQGVRVARPTLTKDLNELVSRGSVEATAPPRSKNRTYRIP”, the “soluble fraction (log2)” value is reported as 0.302. With “HMRDFLMDSTKNKLSKDQVQLSRIFLWFGNDFGSKAERLEFISRYSGMDFNQPKIDYLTYDWSLNQ” the “soluble fraction (log2)” value was -0.207. With “HMRDLITYVVQINGKLRGKLEVAPDTDPEELKALALEVENVKRSLEGWVVKKVIVVPGKMVSIAAG” the “soluble fraction (log2)” value was -0.105. In the case of “HMRDLLPHFQRELQFLQTHRNEFAAAYPELGGRLATASDLLDDPHVERMVQSFALLAARVHKRLDDDF”, the “soluble fraction (log2)” value is reported as -0.143. In the case of “HMRDLTARQQQILALIRQHIADTGFPPTRAEIAAQLGFRSPNAAEEHLKALARKGVIELASGASRGIRLK”, the “soluble fraction (log2)” value is reported as 0.283. With “HMRDPFDALSARERAVASLVQRGLRNKEVASELGLTEGTVKVHLHKVFDKLGIRGRTELILLAQER” the “soluble fraction (log2)” value was -0.397. For “HMRDQAIDIYKTVHSVAEPYKEVFLLRVLGELSFKEISHIFGKSESWAKVTFFRAKIKVVEKREES”, the “soluble fraction (log2)” value was -1.04. In the case of “HMRDQQHNIYLLEKAKRLYEEFLGDNRHIIAAEMARFEAVLETQDAIIIQRAQQQFSEFLNRFDG”, the “soluble fraction (log2)” value is reported as -1.2. For “HMRDRYEYLKELRLYLSPLGRTEEDRVIEYYAELIGDKIESGIPENGVLSQLGTPRELADKILAETQEY”, the “soluble fraction (log2)” value was -0.384. With “HMRDSLVGLEGVVVREVDDETLAGKVQIGSMEWSARSESGRIPAGRRVVVLRAEGVHIVVKEV” the “soluble fraction (log2)” value was -0.121. For “HMRDSWNEATKEKRYTEAYDALNSALKKTPATPHALSDALWIARELGRTNEEVQRLEWRLYALLTWIS”, the “soluble fraction (log2)” value was -0.0517. For “HMRDTDAEVTYKLNEPFKTMGSVSVEGKVLEFAGSKWFARAAEFASNTEVYPLAKNRVRLTFTFHGLTAP”, the “soluble fraction (log2)” value was 0.0243. With “HMREEFIGVLDGKVAIFHGRPERKGPLKEVTAIEVDKLPRQEQADLEKGLVIRTDKEKLQLMEGLAALLD” the “soluble fraction (log2)” value was -0.171. With “HMREELIALYRAIARLSEDEQELLNLFYFARRPLSEIAQLTGMTPGAAKTRLYRARRHLRREMEEDGYG” the “soluble fraction (log2)” value was -0.653. In the case of “HMREGLRHLRVRMPGGAGETLAMLYREGEVLSQSSDGAFIEVEIRVAQSVAGRLLQMPGVQLTEEVG”, the “soluble fraction (log2)” value is reported as -0.871. In the case of “HMREGNELLGKEGVTVSELRPAGIALIDGRRTDVVTDGEFVAVDQAVEVVEVSGNRVVVRRS”, the “soluble fraction (log2)” value is reported as 0.0769. For “HMREIDIWVAEDADSQRIDKYLSMVVEDLSRSRIASLIEGGSILVNGEVIRAKYKVKPADHITAAFEDEM”, the “soluble fraction (log2)” value was -0.938. With “HMREIKSNEILLEVENLKNSEFFNDINFNIKKGEIVGFSGLIGAGRTELALTLFGYYKAESGKVIQ” the “soluble fraction (log2)” value was -0.291. For “HMREIRIIAEEGHGRLDAFLAGREELGLSRSRIKGLIEEGQVTLNGAVPKAKQPVSPGDEIVVSVPD”, the “soluble fraction (log2)” value was -0.0246. In the case of “HMREKMKGKILDYNFQESRGIISADDGNRYSFENSQWKGTQSPKVNQIVDFEIDGQNAKDIYLDK”, the “soluble fraction (log2)” value is reported as 0.0691. For “HMRESLSEAERHPRYLEGEDVVRMFLLMGDLSRVEAEVIALQWNAQEADRVGLPQDAKVFRTRAR”, the “soluble fraction (log2)” value was -0.417. With “HMREVDKRYYKINIAGTDRIFTNVYRVGDRYSAYEADKNGKPGKFLYSLSQAEIDRAVISGSFDFK” the “soluble fraction (log2)” value was 0.121. With “HMREVSPEDLALMRRIDAWHLEHPFAGARLLRDLLRPEGFQAGRRHIGTLMARMGIEALYRK” the “soluble fraction (log2)” value was -0.255. For “HMREYVGLSPFNKEKTPSFYVNDEKGQFFDFSSGKNGDLITFLQETERLTFMEAVERLAAEAGLPMPA”, the “soluble fraction (log2)” value was -0.617. For “HMRFANGHLIWDTIIELRNAERRINRRALADLTGLKPGVVDDHVERWIEKDQLRRAGNGELEVV”, the “soluble fraction (log2)” value was -0.24. With “HMRFMRVSQSKSKNSTSLYIIESVYTKDNKHTTRIVKKLGTVEELSKEHEDPLAWAKEVAKQMTEEAEQN” the “soluble fraction (log2)” value was -0.508. For “HMRFNIGNVIEHYKLNTEDLAKVLFPTVKYPKQAFDRVLKGEANLDVIQLERLANHIGVLVTDLF”, the “soluble fraction (log2)” value was -0.659. With “HMRFQGKISDWNDEKGYGFVEPNGGGTRAFVHIKSFTDLPRRPINGDIIIYETTTDEKNRVQANNISFTR” the “soluble fraction (log2)” value was -0.163. For “HMRFSYLNIETRKDISSLINKSEITHSSYNNNEYLYKIKSKKTDDFKDLISLIDEKDLISYSIDS”, the “soluble fraction (log2)” value was 0.258. With “HMRFTVSDKMDMLLKSLSAGQSMPFKSLFASASTKSEVIVTFLALLELMKLNQFVVWQDQILGEIEIERR” the “soluble fraction (log2)” value was -0.162. In the case of “HMRGDQLREHLLWTAKDVFLELGFERASMDAVAARAETSKRSLYAHFESKEKLFLAVIDLVRG”, the “soluble fraction (log2)” value is reported as -1.65. For “HMRGESFSTLVSILQEMSARKAAQVLNGLSEGLAVEVLRALPSDVAGDILGRMDAAKAAALMEQLST”, the “soluble fraction (log2)” value was -0.9. For “HMRGGLATLTPRERQVLALMAEGRSNAGIAAELVVSGGAVEKHVASIFTKLGLPPDESDNRRVLAVLRHLG”, the “soluble fraction (log2)” value was -0.186. For “HMRGHASVEIKRIVYKYKLTDQELAKITGMKASDFPIYHDHLQLILPKRYWARVLDALQNYEKEHES”, the “soluble fraction (log2)” value was no less than 0.43. For “HMRGINDLSLVDPQGRIRKDGEQYVVAFGRHKGKEISQIISQDPSYLNWLLSPKGIEDDATRELIRTQYS”, the “soluble fraction (log2)” value was -0.0946. With “HMRGPTIELLIQKSALYEELDDSENALKEILKAFDRDSLNSDVLNRLVNLLLNDKQIDRAENYNQLLIEK” the “soluble fraction (log2)” value was -0.847. In the case of “HMRGPVRLDLPVSGLSRSSGPALAKILQAVPGVHKAHVNVRSGKATLEYDPARAKVTDFVEVIRSAGFGT”, the “soluble fraction (log2)” value is reported as -0.072. In the case of “HMRGQGRILAMLKIQPEIATKDLAYLLGIRQQSLNELLKKLEKNSYVERRPSEKDRRVMVVHLTEKGKE”, the “soluble fraction (log2)” value is reported as 0.0202. With “HMRGQLADLWLPREQARRAAEIVAARPVPLGSVKTWIARGKLAPRKTGTGPALYRVGALVSLLAKS” the “soluble fraction (log2)” value was 0.133. With “HMRGVNEISYTTLISEVSGGNVRDVVISGDEITGTFNDGSRFHSFSPDDPQFIERLNDQGVIINVKPL” the “soluble fraction (log2)” value was -0.904. With “HMRHDSEGYYRLIGVPPDADDAELKEAAKKRLMEAHPDHGGSEDEFVEVYRAYRTLTDPSARAEYDARP” the “soluble fraction (log2)” value was -0.133. For “HMRHEDLSPAQKAAALVVAVGSENAAQVLRHLSEEEVEILAGEVARLGEVDPDVVDSVMREVYEQMMGH”, the “soluble fraction (log2)” value was -0.929. In the case of “HMRHKSNRRLTAAHQIEQQIQKLLMENTMEAKELKESLNFAAKDIDTVLSWLVDKDKVRINAINQYYWT”, the “soluble fraction (log2)” value is reported as -1.28. For “HMRHRITEKDKQFRIGQQVWHSEYGKGMVLSVDGIGSSARLTVSFVSGKLAKIIGTFVSTEP”, the “soluble fraction (log2)” value was -0.982. In the case of “HMRIETLESLANRLAYKAYRTGRKVELEPMNPFERRVIHTALQNSKYATTESEGEDMNRHIVIVPKEGG”, the “soluble fraction (log2)” value is reported as 0.247. In the case of “HMRILGIDPGSVVTGYGVIDKSGNYLRHVLHGEIKPHKGYLLSEVLMDIFSKLSAVIVETNPQSV”, the “soluble fraction (log2)” value is reported as 0.146. For “HMRINIVKSKNAEQLYIIHSYRINGKNTSKIYKKLGTMADLLPLHNHDRDQVLAWAKEQARLATEQYDQEN”, the “soluble fraction (log2)” value was 0.26. With “HMRIQLNFSDQLLDDVMSEALKHIDRKSQEHHIEKQMDDEFMLVYIDARLIIQVIVNIINNAIKY” the “soluble fraction (log2)” value was -0.912. With “HMRITEGEIVEIQEGDNRALVGVGEKLEGIISLDEIRGADGKLLFNVGDKITVMVMGHYNERPK” the “soluble fraction (log2)” value was -0.429. For “HMRITRREQQVLHLLAMGMTTREIAGHINLTERTVRNRISNLRDKLGAQTASQLLAKAVAQGLIEP”, the “soluble fraction (log2)” value was 0.426. With “HMRIVSGRESMLGRTVVVADWAGERGHVVVDGERWNAVASTPLAAGRRARIVGIDGLTLSVSPDDKP” the “soluble fraction (log2)” value was 0.0452. In the case of “HMRKAERHLLIKQVIDEFTIRTQEELLAKLSDYGVNATQATISRDIRDLKIVKAPDENGISRFVFF”, the “soluble fraction (log2)” value is reported as -0.358. For “HMRKGDDRLRAQVDEYISKQGNNTFNYKQVAHAINATSPISQRAVALYLAELAFDGDLLETAPGRYKSPSR”, the “soluble fraction (log2)” value was 0.191. With “HMRKIKDVLRLKLHAGLSHERVAASLNISKGVVAKYTSLAAAAGLDWPTVERLSEAALERRLV” the “soluble fraction (log2)” value was 0.22. For “HMRKIKEVLRLKFETGFSHERIAAAVGVSKGAVTKYVQRAVAAGLGWPLAPERDDAALEALLFPH”, the “soluble fraction (log2)” value was 0.0455. For “HMRKLDQRLAGLLLGKGRLVKATHQQLADELGSVREMVSRLLKGFAEHDLVRMSREQIEIVDAAGLRKLAD”, the “soluble fraction (log2)” value was -0.611. With “HMRKPDLTSVRTLIRSVSKLARHLKISPNGIYRWISVNRIPGAHVVKVANYYDVEIRDLVHLTGSD” the “soluble fraction (log2)” value was -0.578. For “HMRLADHVVEKLLALVQDRGLQPGQKLPAERQLAEELGVSRTSVREAIQKLTSQGVLSARRGDGTYLQS”, the “soluble fraction (log2)” value was 0.402. With “HMRLARPLTPTEERVLRLLASDMSNAKIGEVLGIRLPTVKSHVSHIMQKLGVTSRAKARTAAQQLGI” the “soluble fraction (log2)” value was no less than 0.43. In the case of “HMRLDPENFYIRAVTYYRNGDWQRALSQLDEAIKLGTAIEYPALQARIYLEQGMRDEFIAASEK”, the “soluble fraction (log2)” value is reported as -1.42. In the case of “HMRLDVALRGVLLDGDPTQSRAFVLVSGTTSTYRLGETVQSAELVAINADTITLRTETGLHVIGFDGLI”, the “soluble fraction (log2)” value is reported as -2.11. With “HMRLEYLVDVEEISIKEYLMLLGLSRRLARKIKLYGKMYINHQEAFNYHLVKKGDLLTIEFDE” the “soluble fraction (log2)” value was -2.21. In the case of “HMRLIDVFELSPKNRTVLQLYYYEGYSVTEISKILKISVNGVTSRLSRARSKLKLEMEAAENE”, the “soluble fraction (log2)” value is reported as -0.0525. For “HMRLMLITPTEFDEAAEIADNLKDRRAVLMNVEKTDNETARRLIDFLSGVVYALGGKIMRISAQAYVLT”, the “soluble fraction (log2)” value was -0.228.
